US20150139996A1
Read-outs that look alike come from different tables or passages of the source.

Assays:
[1] = target: IgG1 heavy chain with CH3 construct 68 (T366K, L351K) (human) [IgG part: P01857]; assay: batch test before the pK study; 1516:1337 (MF1516 on DE-side, MF1337 on KK-side)
[2] = target: IgG1 heavy chain with CH3 construct 69 (L351D, L368E) (human) [IgG part: P01857]; assay: native MS of gel filtrated sample 1516:1337 (MF1516 on DE-side)
[3] = target: IgG1 heavy chain with CH3 construct 69 (L351D, L368E) (human) [IgG part: P01857]; assay: native MS; combination 12 co-expressed (A: VH MF1337, B: VH MF1122)
[4] = target: IgG1 heavy chain with CH3 construct 69 (L351D, L368E) (human) [IgG part: P01857]; assay: native MS; combination 3 co-expressed (A: VH MF1337, B: VH MF1122)
[5] = target: IgG1 heavy chain with CH3 construct 2 (K392D, K409D) (human) [IgG part: P01857]; assay: native MS (peak height); transfection #9 of Table 24; crossed dimer B/69 with D/2
[6] = target: IgG1 heavy chain with CH3 construct 69 (L351D, L368E) (human) [IgG part: P01857]; assay: SDS-PAGE of protein A-purified supernatant; construct expressed alone
[7] = target: IgG1 heavy chain with CH3 construct 69 (L351D, L368E) (human) [IgG part: P01857]; assay: native MS (peak height); Tr. 2; AA = DE-DE homodimer of 1337-DE
[8] = target: IgG1 heavy chain with CH3 construct 69 (L351D, L368E) (human) [IgG part: P01857]; assay: native MS (peak height); Tr. 4; CC = DE-DE homodimer of 1025-DE
[9] = target: IgG1 heavy chain with CH3 construct 69 (L351D, L368E) (human) [IgG part: P01857]; assay: native MS (peak height); Tr. 7, 2:1:1; AA = 1337-KK with 1337-DE
[10] = target: IgG1 heavy chain with CH3 construct 69 (L351D, L368E) (human) [IgG part: P01857]
[11] = target: IgG1 heavy chain with CH3 construct 69 (L351D, L368E) (human) [IgG part: P01857]; assay: native MS (peak height); Tr. 5, 2:1:1; AB = 1337-KK with 1122-DE
[12] = target: IgG1 heavy chain with CH3 construct 69 (L351D, L368E) (human) [IgG part: P01857]; assay: native MS (peak height); Tr. 3, 1:2:1; BC = 1025-KK with 1122-DE
[13] = target: IgG1 heavy chain with CH3 construct 68 (T366K, L351K) (human) [IgG part: P01857]; assay: native MS; combination 12 co-expressed (A: VH MF1337, B: VH MF1122)
[14] = target: IgG1 heavy chain with CH3 construct 68 (T366K, L351K) (human) [IgG part: P01857]; assay: native MS; combination 7 co-expressed (A: VH MF1337, B: VH MF1122)
[15] = target: IgG1 heavy chain with CH3 construct 63 (L351D) (human) [IgG part: P01857]; assay: as above
[16] = target: IgG1 heavy chain with CH3 construct 69 (L351D, L368E) (human) [IgG part: P01857]; assay: native MS (peak height); Tr. 7, 2:1:1; AC = 1337-KK with 1025-DE
[17] = target: IgG1 heavy chain with CH3 construct 69 (L351D, L368E) (human) [IgG part: P01857]; assay: native MS (peak height); Tr. 2, 2:1:1; AB = 1122-KK with 1337-DE
[18] = target: IgG1 heavy chain with CH3 construct 69 (L351D, L368E) (human) [IgG part: P01857]; assay: native MS (peak height); Tr. 5, 2:1:1; AA = 1337-KK with 1337-DE
[19] = target: IgG1 heavy chain with CH3 construct 69 (L351D, L368E) (human) [IgG part: P01857]; assay: native MS (peak height); Tr. 11; by a transfection error 1025-DE stood with 1337-KK instead of 1122-KK
[20] = target: IgG1 heavy chain with CH3 construct 69 (L351D, L368E) (human) [IgG part: P01857]; assay: native MS (peak height); Tr. 1, 2:1:1; AC = 1337-KK with 1025-DE
[21] = target: IgG1 heavy chain with CH3 construct 69 (L351D, L368E) (human) [IgG part: P01857]; assay: native MS (peak height); Tr. 3, 1:2:1; AB = 1337-KK with 1122-DE
[22] = target: IgG1 heavy chain with CH3 construct 69 (L351D, L368E) (human) [IgG part: P01857]; assay: native MS (peak height); Tr. 8, 1:1:2; CC = 1025-KK with 1025-DE
[23] = target: IgG1 heavy chain with CH3 construct 69 (L351D, L368E) (human) [IgG part: P01857]; assay: native MS (peak height); Tr. 1, 2:1:1; AB = 1337-KK with 1122-DE
[24] = target: IgG1 heavy chain with CH3 construct 69 (L351D, L368E) (human) [IgG part: P01857]; assay: native MS (peak height); Tr. 9, 1:1; 1337-KK with 1122-DE
[25] = target: IgG1 heavy chain with CH3 construct 69 (L351D, L368E) (human) [IgG part: P01857]; assay: native MS (peak height); Tr. 8, 1:1:2; AC = 1337-KK with 1025-DE
[26] = target: IgG1 heavy chain with CH3 construct 69 (L351D, L368E) (human) [IgG part: P01857]; assay: native MS (peak height); transfection #11 of Table 24; AB = A/68 with B/69
[27] = target: IgG1 heavy chain with CH3 construct 74 (L351D, Y349D) (human) [IgG part: P01857]; assay: native MS; combination 10 co-expressed (A: VH MF1337, B: VH MF1122)
[28] = target: IgG1 heavy chain with CH3 construct 68 (T366K, L351K) (human) [IgG part: P01857]; assay: as above
[29] = target: IgG1 heavy chain with CH3 construct 69 (L351D, L368E) (human) [IgG part: P01857]; assay: native MS (peak height); Tr. 10, 1:1; 1337-KK with 1025-DE
[30] = target: IgG1 heavy chain with CH3 construct 69 (L351D, L368E) (human) [IgG part: P01857]; assay: native MS (peak height); Tr. 4, 1:1:2; BC = 1122-KK with 1025-DE
[31] = target: IgG1 heavy chain with CH3 construct 68 (T366K, L351K) (human) [IgG part: P01857]; assay: SDS-PAGE of protein A-purified supernatant; construct expressed alone
[32] = target: IgG1 heavy chain with CH3 construct 69 (L351D, L368E) (human) [IgG part: P01857]; assay: native MS (peak height); Tr. 6, 1:1:2; AB = 1337-KK with 1122-DE
[33] = target: IgG1 heavy chain with CH3 construct 69 (L351D, L368E) (human) [IgG part: P01857]; assay: native MS (peak height); Tr. 6, 1:1:2; BB = 1122-KK with 1122-DE
[34] = target: IgG1 heavy chain with CH3 construct 75 (L351D, Y349D, R355D) (human) [IgG part: P01857]; assay: native MS; combination 9 co-expressed (A: VH MF1337, B: VH MF1122)
[35] = target: IgG1 heavy chain with CH3 construct 68 (T366K, L351K) (human) [IgG part: P01857]; assay: as above
[36] = target: IgG1 heavy chain with CH3 construct 72 (L351D, R355D) (human) [IgG part: P01857]; assay: native MS; combination 8 co-expressed (A: VH MF1337, B: VH MF1122)
[37] = target: IgG1 heavy chain with CH3 construct 68 (T366K, L351K) (human) [IgG part: P01857]; assay: as above
[38] = target: IgG1 heavy chain with CH3 construct 69 (L351D, L368E) (human) [IgG part: P01857]; assay: native MS (peak height); Tr. 2, 2:1:1; AC = 1025-KK with 1337-DE
[39] = target: IgG1 heavy chain with CH3 construct 68 (T366K, L351K) (human) [IgG part: P01857]; assay: native MS; combination 11 co-expressed (A: VH MF1337, B: VH MF1122)
[40] = target: IgG1 heavy chain with CH3 construct 71 (L351D, Y349E) (human) [IgG part: P01857]; assay: as above
[41] = target: IgG1 heavy chain with CH3 construct 69 (L351D, L368E) (human) [IgG part: P01857]; assay: native MS (peak height); Tr. 4, 1:1:2; AC = 1337-KK with 1025-DE

Substance: IgG1 heavy chain with CH3 construct 69 (L351D, L368E) (from UniProt P01857-1)
- percent bispecific IgG [1]: > 90%
- percent of species in the sample [2]: 2%
- % BB found [3]: 0%
- % BB found [4]: 0%
- percent of species in the mixture [5]: 3%
- % IgG [6]: 83.7%
- % half molecule [6]: 16.3%
- Observed species (%) [7]: 6%
- Observed species (%) [8]: 1%

Substance: IgG1 heavy chain with CH3 construct 68 (T366K, L351K) (from UniProt P01857-1)
- Observed species (%) [9]: 46%
- percent of species in the mixture [10]: 30%
- Observed species (%) [11]: 43%
- Observed species (%) [12]: 46%
- % AA found [13]: 0%
- % AB found [3]: 92%
- % AA found [14]: 0%
- % AB found [15]: 77%
- Observed species (%) [16]: 54%
- Observed species (%) [17]: 40%
- Observed species (%) [18]: 57%
- Observed species (%) [19]: > 98%
- Observed species (%) [20]: 57%
- Observed species (%) [21]: 54%
- Observed species (%) [22]: 40%
- Observed species (%) [23]: 43%
- Observed species (%) [24]: > 98%
- Observed species (%) [25]: 60%
- percent of species in the mixture [26]: 33%
- % AB found [27]: 95%
- % AA found [28]: 1%
- Observed species (%) [29]: > 98%
- Observed species (%) [30]: 33%
- % IgG [31]: 34.7%
- % half molecule [31]: 65.3%
- Observed species (%) [32]: 75%
- Observed species (%) [33]: 25%
- % AB found [34]: 93%
- % AA found [35]: 1%
- % AB found [36]: 79%
- % AA found [37]: 0%
- Observed species (%) [38]: 54%
- % AA found [39]: 1%
- % AB found [40]: 95%
- Observed species (%) [41]: 66%
